The source of these data is PMC4118869 (PLoS ONE, 2014).

In the assay the target is recombinant H5-HA, A/Vietnam/1203/2004 (H5N1) (Influenza A virus A/Vietnam/1203/2004 …, UniProt Q5EP31, strain). As to the kind of experiment: SPR. The following applies: both partners purified.

B1: R1a-B6 monovalent (VHH)
VHH: QVQLVESGGGLVQPGGSLRLSCAASGSFFSRYRMGWYRQAPGEQRELVASIAYDGSTSYADPVKGRFTISRDNANTVHLQMYSLKPDDTAVYYCNLDPPGILYWGQGTQVTVSS
notes: source: E. coli WK6, periplasmic extract, purified (Talon IMAC, Superdex 75 SEC)
With B1, the Kd stood at 0.51 nM.

B2: R1a-A5 monovalent (VHH)
VHH: QVQLVESGGGLVQPGGSLRLSCSASGSAVLFSTYPMSWYRQAPGKQRELVAAVTTDGSTSYADYAKGRFTISRDNAKNTVYLQMNSLKPEDTAVYYCNARDGFFNRYDYWGQGTQVTVSS
notes: as for B1
With B2, the Kd was determined as 0.27 nM.

One may read the Kd as the equilibrium constant for the complex coming apart.
